Laboratory results: US20190256843A1 (AGILENT TECHNOLOGIES, published 2019)

T1: negative control phosphoprotein AGPADAPAGAVVGGG[S^P/S]PRGRPGPVPAPGLLA fused to N-terminal split mCherry (central residue (position 16 of SEQ ID NO:59) printed as [S^P/S]: phosphoserine with SepOTSλ, serine with tRNA^supD)
T1 construct: also called n.c; (14-3-3 experiment); negative control for the 14-3-3 experiment; not shown: N-terminal split mCherry and linker
T1 chain: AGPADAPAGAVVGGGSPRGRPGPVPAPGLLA


Target: T1, negative control phosphoprotein …
Experiment: clonal BiFC split mCherry (negative control of the 14-3-3 experiment)

Binder	binding result
human 14-3-3β fused to C-terminal split mCherry (C-mCh) with C-terminal 6xHis tag (other, also called 14-3-3 isoform β) MTMDKSELVQKAKLAEQAERYDDMAAAMKAVTEQGHELSNEERNLLSVAYKNVVGARRSSWRVISSIEQKTERNEKKQQMGKEYREKIEAELQDICNDVLELLDKYLIPNATQPESKVFYLKMKGDYFRYLSEVASGDNKQTTVSNSQQAYQEAFEISKKEMQPTHPIRLGLALNFSVFYYEILNSPEKACSLAKTAFDEAIAELDTLNEESYKDSTLIMQLLRDNLTLWTSENQGDEGDAGEGENELGAAAGGSGGALKGEIKQRLKLKDGGHYDAEVKTTYKAKKPVQLPGAYNVNIKLDITSHNEDYTIVEQYERAEGRHSTGGMDELYKHHHHHH	no binding
human 14-3-3σ fused to C-terminal split mCherry (C-mCh) with C-terminal 6xHis tag (other, also called 14-3-3 isoform σ) MERASLIQKAKLAEQAERYEDMAAFMKGAVEKGEELSCEERNLLSVAYKNVVGGQRAAWRVLSSIEQKSNEEGSEEKGPEVREYREKVETELQGVCDTVLGLLDSHLIKEAGDAESRVFYLKMKGDYYRYLAEVATGDDKKRIIDSARSAYQEAMDISKKEMPPTNPIRLGLALNFSVFHYEIANSPEEAISLAKTTFDEAMADLHTLSEDSYKDSTLIMQLLRDNLTLWTADNAGEEGGEAPQEPQSELGAAAGGSGGALKGEIKQRLKLKDGGHYDAEVKTTYKAKKPVQLPGAYNVNIKLDITSHNEDYTIVEQYERAEGRHSTGGMDELYKHHHHHH	no binding
